test: soluble fraction after stress (log2 fold change); higher = more stays soluble; pooled small domains, quantitative proteomics; conditions: stress: 50 degC
Method in brief: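 Each library was heated to 50°C as a stress step. The libraries, made up of small protein domains, were pooled and analysed at high throughput by quantitative proteomics. The reported value is the base-two logarithm of the fold change in each protein's soluble amount after stress, taken as a measure of aggregation propensity. The higher the value, the more protein stays in solution.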

For “HMTSNEKARNAASAERRADIVAAARELYEEQGLSKTSVQDITNRMGVARSLFYHYFPDKEAVTSAVLDDYV”, which “soluble fraction (log2)” value is on record?
The value was 0.244.

With “HMDTGPISGQVEADRVEVHGHLDGKISAQNVVVGQTGVVKGDIEFGENLRTEEGADIEGYIK” as the sequence, how does the “soluble fraction (log2)” value read?
The value was -0.149.

Which “soluble fraction (log2)” value does the source give for “HMLRISEEVWALVEKTLREDWSPEQVSGKLKASGISVSHERIYQHIYADKRVGGTLWTHLRR” here?
The value was -2.3.

Which “soluble fraction (log2)” value does the source give for “HMEKEFLFNGGKVVMNYEADRIQIMHDTKPGQDVITLMKKNGFKWSPFNKAWQRQITANAIYTTKHLINQ” here?
Its value is -1.5.

For “HMDTEVVMINVVGMNIDKAKNSLNHKNILYKISYQDVSEGENNVVLKQSISSNTKIKKGQVVSLVVGKLN”, which “soluble fraction (log2)” value is on record?
The value was 0.352.

Which “soluble fraction (log2)” value does the source give for “HMSSLQFVTLTLMEGHAWVGREIQELLMPPQMRIALIRRGDSQVIPKGSTILESADELILSAIEYQG” here?
Its value is -4.14.

For “HMLPSDLDEGNRRRQLIEGAARLFRAKGFDGTSTRDIAAAAGMRSGSPFYHFDSKNALLYVVVQEGM”, which “soluble fraction (log2)” value is on record?
Its value is -0.0519.

With “HMEEILLSVKADGTYWVDQKEVTLDEVGALLDKEPDRLLNIFMDEKVPVRHFINVVDIAKVKREGRFII” as the sequence, how does the “soluble fraction (log2)” value read?
Its value is -0.453.

For “HMPAFWILAVLAGGRRHGYQIMREAALSSEGLVTLKPTTLYAALERLERDGAIQQDGEEIVDGRVRRYYRI”, which “soluble fraction (log2)” value is on record?
The value was 0.259.

With “HMEDFDLSDTERKIIAQIGHGYSNKEIAQKLGFSEGTIRNYLSVILDKLDLRDRTQLAIWYLSR” as the sequence, how does the “soluble fraction (log2)” value read?
Its value is -0.143.

Which “soluble fraction (log2)” value does the source give for “HMRALPAGQADLLKWIDGVTPRSVEELELLSGLEPGRLSELLMELELAGIVRAVAGDSYIKISKS” here?
Its value is -0.462.

With “HMSTLGIRIKHYRTDSNLTQKELAGLINVKRDALANWETDRALPDVMNLKKLAEVFQVSTDELLQV” as the sequence, how does the “soluble fraction (log2)” value read?
The value was -0.927.

For “HMGDDYFTILGIERDATTDEIRSAYRRLSKKIHPDAQGSSALFRQVQEAYETLIDPSSRARYVAELNASQG”, which “soluble fraction (log2)” value is on record?
The value was 0.113.

Which “soluble fraction (log2)” value does the source give for “HMNTTLQLDTILRLEKNAHLLENFVRAGFTDSELGKLTDADLLQIGVPKIGDRRRLLAALAERAH” here?
Its value is -0.589.

With “HMSQYELEDVEKQRLKFKNGDEKALWLLSDIYKDNSQSYEVRLAALRALSESRHPLIIFDIQSSVK” as the sequence, how does the “soluble fraction (log2)” value read?
The value was -0.208.

For “HMDYQEVEFEKLGKEILTKILLDINKKATKKTLKILIDGFNYDSYRSFYIAIGKAQISSDSILELLQH”, which “soluble fraction (log2)” value is on record?
Its value is -0.622.

For “HMQRYVVDENLKLDKKDINHIINVMRLNVNDQIKLINNGTIYDAIITKIEKNNVLYEIIKKEESK”, which “soluble fraction (log2)” value is on record?
Its value is 0.0274.

With “HMNPFPDNTAEVLSQFKNIIVPELNTGQLSKLLRARYLVDTVGINKVEGLPFTAQELEEKIESLINSF” as the sequence, how does the “soluble fraction (log2)” value read?
Its value is -0.323.

Which “soluble fraction (log2)” value does the source give for “HMDNQYGVYSDEKNNVEIHWKRIDHPSVAKDHLDIEAYQNGKRVDINNQQADHYRYLINQEMNE” here?
Its value is 0.0952.

For “HMSQNVQDVFLNHVRKSKNPVTVFLVNGVKLQGIITWFDNFSVLLRREGHTQLVYKHAISTVMPSGPIQLF”, which “soluble fraction (log2)” value is on record?
Its value is 0.0729.

For “HMNKTLTEQIYDELKSAIIELELKPGEFVTEEYLAEQLGVSRTPLKSAISKLIFEGLMAYEVGKGTYIS”, which “soluble fraction (log2)” value is on record?
The value was -0.747.

With “HMDFDFHALGREIKRKRKDKGWTQEYLAQLLDRTPRSIMYMENRGQHPSLNILFKIATLLEISIDQFFF” as the sequence, how does the “soluble fraction (log2)” value read?
Its value is 0.194.

With “HMQRLSRREIEVLHWIAEGKSDWQIGQILSISAKTVNYHTENLKRKFGVATRMQAVVSAIKQGAFVPGE” as the sequence, how does the “soluble fraction (log2)” value read?
The value was -4.43.

Which “soluble fraction (log2)” value does the source give for “HMVIPATPTARRAKIAGLLADRSVRSQGELLTLLADAGIEVTQATLSRDLEALGAVKVRDGRGLVYAVPG” here?
Its value is -0.0411.

For “HMDAVLMEYDRLLALELTEDPDVYQDLLDKVREQSLGADGRVTDKYREKFDAVATRFDDYEDNYQW”, which “soluble fraction (log2)” value is on record?
Its value is -0.52.

Which “soluble fraction (log2)” value does the source give for “HMNAVYPNPFVSEIYIGENNRSVEIYNLNGGLVYGMSQPSSRIDVSGLAAGSYILIKKDSSGHISSHKIMK” here?
Its value is 0.0698.

Which “soluble fraction (log2)” value does the source give for “HMIQSEQIPFSKFLKEVDSGRVVQVEIQGNNINGVLSDGSKFKTYSPNYPELVGKLSDKGVSIVASPV” here?
The value was 0.106.

For “HMPQLSNEEQKIVDALEGSDGKQINLITVETNIPMARLMSVLFEMEMRGIVKSLNGARYKLN”, which “soluble fraction (log2)” value is on record?
Its value is -0.163.

Which “soluble fraction (log2)” value does the source give for “HMGPGDTTIPTTIIGMSLEEARNELSAAGLLVARIIPVDSNSRTGTVLKITPDAGSIIKAGSGVELEIAS” here?
The value was 0.0765.

With “HMPAYYQKEAVLDGRASVFAYERDPSSWYFKQLIPGTKKYRTKKIQGATTLEQAKSQALDIALGLRDEP” as the sequence, how does the “soluble fraction (log2)” value read?
Its value is 0.0201.

With “HMKQTDQELAEMLRFRAAQRGLLMSDEVVNYVMTRVERSAKSLIMLLDRIDRAALAQARPVTIPLINEL” as the sequence, how does the “soluble fraction (log2)” value read?
Its value is -0.499.

Which “soluble fraction (log2)” value does the source give for “HMSTDSTQLLGFNKTGEELPIYKEANEENKFAEIPQNVYVKNFGQNGEFTKIKYLDQEGYVKTAGLK” here?
Its value is no less than 0.62.

With “HMSNIIIYPNPTNDGLIHIKGSKFPFNYALYNLSGKLIETGKKNQIQLNDRGVYLLKIQTEGQTYFKKII” as the sequence, how does the “soluble fraction (log2)” value read?
Its value is 0.272.

With “HMDSVTLGISFNGKTRFTLDFPADAAAADIEKAALEAEQSQRYLEGMTVAKVIVVPGRIVNIVLK” as the sequence, how does the “soluble fraction (log2)” value read?
Its value is -0.501.

Which “soluble fraction (log2)” value does the source give for “HMHKTEIKIPSREDILAVLRQAQAPLTREQVFEHLKLTEDQIPIIEKRLNAMERDGQLMPNRKGMLLLSTK” here?
The value was 0.266.

Which “soluble fraction (log2)” value does the source give for “HMNDILETISNQIRDLRVSKKITQQELAERTNLSVPYISQIENGHRNISLETFIKIVDALDIPLSDFFLP” here?
Its value is -1.03.

Which “soluble fraction (log2)” value does the source give for “HMANNPISMIKIRQILRLHIQGRSKLQIAAQTGISRNTLKKYLKEFEASKLTYDEISELSDKDLEDLFIK” here?
Its value is -2.02.

Which “soluble fraction (log2)” value does the source give for “HMRPRWTEQEVERAKAIKMIYPNAYRLESSDVFVQVWSKEEILLAHVEVDMFPSLRPGQPVELDEIIG” here?
The value was 0.103.

Reference: the domain aggregation screens of Martell et al. (2025)
